The record followed here is PMC7674511 (2020).

B1: FLAG-BAG6(1-266aa) [not stated] / GFP-LC3B [not stated] (parent complex)
chain 1: MEPNDSTSTAVEEPDSLEVLVKTLDSQTRTFIVGAQMNVKEFKEHIAASVSIPSEKQRLIYQGRVLQDDKKLQEYNVGGKVIHLVERAPPQTHLPSGASSGTGSASATHGGGSPPGTRGPGASVHDRNANSYVMVGTFNLPSDGSAVDVHINMEQAPIQSEPRVRLVMAQHMIRDIQTLLSRMECRGGPQPQHSQPPPQPPAVTPEPVALSSQTSEPVESEAPPREPMEAEEVEERAPAQNPELTPGPAPAGPTPAPETNAPNHPS
chain 2: not shown
B2: BAG6 LIR1 peptide (residues 124-143) [modified: FITC label (position not stated), told for the anisotropy assay; FITC label (position not stated), told for the anisotropy assay] [not stated] / LC3B-I [not stated] (parent complex)
chain 1: VHDRNANSYVMVGTFNLPSD
chain 2: not shown

The variants in the first test derive from B1. Kind of test: co-immunoprecipitation (FLAG pulldown with anti-FLAG beads, immunoblot); HEK293FT cells transfected with GFP-LC3B and FLAG-BAG6(1-266aa) constructs.
Turning to chain 1 Y132A, chain 1 V135A, the ratio to parent is 0.79.
The same measure, in the same setting: then chain 1 Y132A, chain 1 V133A, chain 1 M134A, chain 1 V135A, with 0.23.

Variants of B2 are the subject of another test. Kind of test: fluorescence anisotropy; FITC-labeled peptide 1 μM; read at the highest LC3B-I concentration plotted (about 48 μM); read off a plot.
As to chain 1 Y9A, chain 1 V12A, the response is ~0.001.
